{
  "source": "patent US20130244255A1",
  "about": "(published 2013)",
  "binders": {"B1": {"name": "Mab1.7.1 (antibody, IgG2, V domains shown)", "VH": "QVQLQESGPGLVKPSQTLSLTCTVSGGSISSANYYWTWIRQHPGKGLEWIGYIYYSGSTYCNPSLKSRVIISVDTSKNQFSLKLSSVTAADTAVYYCARGYNWNYFDYWGQGTLVTVSS", "VL": "DIVMTQSPATLSVSPGERATLSCRASQSVSSNLAWYQERPGQAPRLLIYGASTRATGIPARFSGSGSGTEFTLTISSLQSEDFAVYYCQQYNKWPPWTFGQGTKVEIER", "notes": "Fully human hybridoma antibody (XenoMouse XMG2, IgG2 kappa)"}, "B2": {"name": "Mab1.10.2 (antibody, IgG2, V domains shown)", "VH": "QVQLQESGPGLVKPSETLSLTCTVSGDSISNYYWSWIRQPPGKGLEWIGYFYYSGSTNYNPSLKSRVTISVDTSKNQFSLKLSSVTAADTAVYYCARDRGWADYWGQGTLVTVSS", "VL": "EIVLTQSPGTLSLSPGERATLSCRTSQSISSSYLAWYQQKPGQVPRLLIYGASSRATGIPDRFSGSGSGTDFTLTISRLEPEDFAVYYCQQYGSSITFGQGTRLEIKR", "notes": "as for B1"}, "B3": {"name": "Mab1.2.2 (antibody, IgG2, V domains shown)", "VH": "ITLKESGPTLVKPTQTLTLTCTFSGFSLSAGGVGVGWIRQPPGKALEWLALIYWNDDKRYSPSLRSRLTITKDTSKNQVVLTITNMDPVDTATYYCAHSHYDYDWGSYFDYWGQGTLVTVSS", "VL": "DIVMTQTPLSLPVTPGEPASISCRSSQSLLDSDDGNTYLDWYLQKPGQSPQLLIYTLSYRASGVPDRFSGSGSGTDFTLNISRVEAEDVGVYYCMQRIEFPITFGQGTRLEIKR", "notes": "Fully human hybridoma antibody (XenoMouse XMG2, IgG2 kappa); also called CR011.1.2.2"}, "B4": {"name": "CR011 single chain antibody (CR011 scFv), VL-L4-VH, Flag tag (scFv)", "scFv": "EIVMTQSPATLSVSPGERATLSCRASQSVDNNLVWYQQKPGQAPRLLIYGASTRATGIPARFSGSGSGTEFTLTISSLQSEDFAVYYCQQYNNWPPWTFGQGTKVEIKLSADDAKKDAAKKDDAKKDDAKKDLQVQLQESGPGLVKPSQTLSLTCTVSGGSISSFNYYWSWIRHHPGKGLEWIGYIYYSGSTYSNPSLKSRVTISVDTSKNQFSLTLSSVTAADTAVYYCARGYNWNYFDYWGQGTLVTVSSASDYKDDDDK", "notes": "also called CR011 scFv monomer; mono-specific anti-GPNMB scFv"}, "B5": {"name": "CR011-vcMMAE (antibody, human IgG2)", "heavy": "QVQLQESGPGLVKPSQTLSLTCTVSGGSISSFNYYWSWIRHHPGKGLEWIGYIYYSGSTYSNPSLKSRVTISVDTSKNQFSLTLSSVTAADTAVYYCARGYNWNYFDYWGQGTLVTVSSASTKGPSVFPLAPCSRSTSESTAALGCLVKDYFPEPVTVSWNSGALTSGVHTFPAVLQSSGLYSLSSVVTVPSSNFGTQTYTCNVDHKPSNTKVDKTVERKCCVECPPCPAPPVAGPSVFLFPPKPKDTLMISRTPEVTCVVVDVSHEDPEVQFNWYVDGVEVHNAKTKPREEQFNSTFRVVSVLTVVHQDWLNGKEYKCKVSNKGLPAPIEKTISKTKGQPREPQVYTLPPSREEMTKNQVSLTCLVKGFYPSDIAVEWESNGQPENNYKTTPPMLDSDGSFFLYSKLTVDKSRWQQGNVFSCSVMHEALHNHYTQKSLSLSPGK", "VL": "not shown", "modifications": "vcMMAE (maleimidocaproyl-valine-citrulline-monomethylauristatin E) on cysteine thiols of reduced disulfides, about 4 per antibody; positions not given"}, "B6": {"name": "Mab2.10.2 (antibody, IgG2, V domains shown)", "VH": "QLVESGGGVVQPGRSLRLSCAASGFAFSSYGMHWVRQAPGKGLEWVAVISYDGNNKYYADSVKGRFTISRDNSKNTLYLQMNSLRAEDTAVYYCARDLVVRGIRGYYYYFGMDVWGQGTTVTVSS", "VL": "not shown", "notes": "Fully human hybridoma antibody (XenoMouse XMG2, IgG2 kappa); also called CR011.2.10.2"}, "B7": {"name": "Mab2.22.1 (antibody, IgG2, V domains shown)", "VH": "QVQLEQSGPGLVKPSQNLSLTCTVSGGSISSGGYFWSWIRQHPGKGLEWIGYIYYSGNTYYNPSLKSRVTISVDTSKNQFSLKLSSVTAADTAVYYCARDYYYDTSGFSYRYDWYYGMDVWGQGTTVTVSS", "VL": "DIQLTQSPSSLSASVGDRVTITCRASQGIRNDLGWYQQKPGKAPKRLIYAASSLQNGVPSRFSGSGSGTEFTLTISSLQPEDFATYYCLQHNTYPAFGQGTKVEIKR", "notes": "Fully human hybridoma antibody (XenoMouse XMG2, IgG2 kappa); also called CR011.2.22.1"}},
  "key": {"[1]": {"molecular_target": "T1, Recombinant human GPNMB extra-cellular domain (ECD) with a C-terminus V5-HIS tag (human, UniProt Q14956 23-492)", "T1 construct": "Expressed in HEK293; also called GPNMB-V5His; GPNMB-soluble", "T1 sequence": "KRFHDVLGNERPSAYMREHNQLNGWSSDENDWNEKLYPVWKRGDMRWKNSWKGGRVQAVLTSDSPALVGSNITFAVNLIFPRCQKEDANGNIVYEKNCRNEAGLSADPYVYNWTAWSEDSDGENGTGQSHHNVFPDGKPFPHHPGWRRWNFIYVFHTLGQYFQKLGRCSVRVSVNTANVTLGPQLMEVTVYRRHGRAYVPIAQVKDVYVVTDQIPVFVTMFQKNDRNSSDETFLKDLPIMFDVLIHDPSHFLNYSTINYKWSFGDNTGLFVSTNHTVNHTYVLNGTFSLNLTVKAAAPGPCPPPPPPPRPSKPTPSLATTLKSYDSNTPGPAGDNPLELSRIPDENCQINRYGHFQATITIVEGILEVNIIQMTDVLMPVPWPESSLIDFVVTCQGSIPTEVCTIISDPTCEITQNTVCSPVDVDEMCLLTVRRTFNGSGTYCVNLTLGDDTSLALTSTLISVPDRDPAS", "assay": "Biacore, mAb captured on protein A", "procedure": "Certain Hybridoma cell supernatants (29) were analyzed for binding to GPNMB by BiaCore® 2000 biosensor equipped with a research-grade CM5 sensor chip. A 1:25 dilution of cell supernatant was passed over a protein A surface for 5 min followed by washing the surface for 10 mins. […] GPNMB binding data for each mAb was normalized for the amount of mAb captured on each surface. Normalized, drift corrected responses were also measured. The sensorgrams were fit to a simple 1:1 kinetic model."}, "[2]": {"molecular_target": "T2, GPNMB (CG56972) as expressed by human cell lines (human, UniProt Q14956 23-492)", "T2 construct": "Endogenous or transfected full-length protein on cells (FACS, killing assays) or in cell lysates (immunoprecipitation, blot); also called native GPNMB protein", "T2 sequence": "T1 sequence", "assay": "FACS on UACC-62 cells, antibody 1 ug/mL", "procedure": "The specificity of anti-GPNMB antibodies to cell membrane-bound GPNMB protein expressed by melanoma cancer cell line, UACC-62 was analyzed by FACS analysis. […] Cells were washed twice with PBS (Ca and Mg free), incubated with Versene at 37° C. until cells detached, counted and aliquoted at 1 million cells per assay tube. Cells were then washed twice and resuspended in ice-cold FACS buffer (0.01 M HEPES, 0.15M NaCl, 0.1% NaN₃ and 4% FBS). Primary antibody at 1 μg/mL was added to the cells. Cells were incubated on ice for 30 min, washed 2-3 times and resuspended in 1 mL of ice-cold FACS buffer. R-PE-conjugated goat anti-human antibody (Jackson ImmunoResearch Laboratory) at 1:100 dilution was added and cells were incubated on ice for 30 min. After washing 3 times with 1 mL of ice-cold FACS buffer, cells were fixed with 0.5-1 mL of 1% formaldehyde in PBS and analyzed by flow cytometry."}, "[3]": {"molecular_target": "T3, CD3 on purified human T cells (human, UniProt P07766 23-207; P04234 22-171; P09693 23-182)", "T3 construct": "also called human CD3 molecules", "T3 sequence (P07766 23-207 limits assumed, chain 1 of 3)": "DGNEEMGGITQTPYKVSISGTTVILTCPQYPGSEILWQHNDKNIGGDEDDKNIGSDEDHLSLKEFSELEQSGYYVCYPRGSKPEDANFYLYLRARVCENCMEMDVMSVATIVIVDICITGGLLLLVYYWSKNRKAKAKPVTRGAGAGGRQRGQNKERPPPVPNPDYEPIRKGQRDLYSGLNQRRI", "T3 sequence (P04234 22-171 limits assumed, chain 2 of 3)": "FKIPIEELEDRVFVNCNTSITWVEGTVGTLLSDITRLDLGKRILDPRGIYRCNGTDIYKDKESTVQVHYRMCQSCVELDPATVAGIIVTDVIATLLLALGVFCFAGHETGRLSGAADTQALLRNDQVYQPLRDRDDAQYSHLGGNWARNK", "T3 sequence (P09693 23-182 limits assumed, chain 3 of 3)": "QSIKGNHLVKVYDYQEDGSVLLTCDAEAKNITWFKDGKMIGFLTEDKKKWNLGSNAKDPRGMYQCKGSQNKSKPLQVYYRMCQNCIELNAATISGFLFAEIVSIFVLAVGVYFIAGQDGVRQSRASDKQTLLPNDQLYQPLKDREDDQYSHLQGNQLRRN", "assay": "flow cytometry on purified human T cells, mouse anti-FLAG mAb and PE-conjugated goat anti-mouse Ig F(ab')2"}, "[4]": {"molecular_target": "T1, Recombinant human GPNMB extra-cellular …", "assay": "ELISA on plates coated with recombinant GPNMB (His and V5 tagged), detection with anti-FLAG M2-HRP", "procedure": "Plates were then blocked and washed. […] Plates were incubated for 1 h and washed. HRP-conjugated anti-FLAG M2 mAb (Sigma, St. Louis, Mo.) was added into the wells for 1 h, washed and the reaction developed with the TMB substrate reagent as described by the manufacturer (Pharmingen, San Jose, Calif.)."}, "[5]": {"molecular_target": "T2, GPNMB (CG56972) as expressed by human …", "assay": "cell-based or functional assay"}, "[6]": {"molecular_target": "T2, GPNMB (CG56972) as expressed by human …", "assay": "cell-based or functional assay", "remark": "listed apart in the source"}, "[7]": {"molecular_target": "T2, GPNMB (CG56972) as expressed by human …", "assay": "cell-based or functional assay", "remark": "listed apart in the source"}, "[8]": {"molecular_target": "T2, GPNMB (CG56972) as expressed by human …", "assay": "cell-based or functional assay", "remark": "listed apart in the source"}, "[9]": {"molecular_target": "T2, GPNMB (CG56972) as expressed by human …", "assay": "cell-based or functional assay", "remark": "listed apart in the source"}, "[10]": {"molecular_target": "T2, GPNMB (CG56972) as expressed by human …", "assay": "cell-based or functional assay", "remark": "listed apart in the source"}},
  "note": "Several values for one entry are separate records, joined by “and”; a condition that tells them apart may be missing. Equal values may be shown once.",
  "data": [
    {"binder": "B1", "values": [
      {"measurement": "Kd", "setting": "[1]", "result": 122, "unit": "nM"},
      {"measurement": "koff", "setting": "[1]", "result": 0.00144, "unit": "s⁻¹"},
      {"measurement": "kon", "setting": "[1]", "result": 11800, "unit": "M⁻¹ s⁻¹"}
    ]},
    {"binder": "B2", "values": [
      {"measurement": "Kd", "setting": "[1]", "result": 118, "unit": "nM"},
      {"measurement": "koff", "setting": "[1]", "result": 0.000466, "unit": "s⁻¹"},
      {"measurement": "kon", "setting": "[1]", "result": 3960, "unit": "M⁻¹ s⁻¹"}
    ]},
    {"binder": "B3", "values": [
      {"measurement": "Geo Mean Ratio (relative to pK16)", "setting": "[2]", "result": 1.24, "unit": "ratio"},
      {"measurement": "Kd", "setting": "[1]", "result": 96, "unit": "nM"},
      {"measurement": "koff", "setting": "[1]", "result": 0.00089, "unit": "s⁻¹"},
      {"measurement": "kon", "setting": "[1]", "result": 9260, "unit": "M⁻¹ s⁻¹"}
    ]},
    {"binder": "B4", "values": [
      {"measurement": "binding result", "setting": "[3]", "result": "no binding (tested: 5 ug/sample/100 ul)"},
      {"measurement": "binding result", "setting": "[4]", "result": "binds"}
    ]},
    {"binder": "B5", "values": [
      {"measurement": "IC50 of colony formation (clonogenic assay, % of control, 96 h) on HEK293 cells transfected with GPNMB (circles); Vector + CR011-vcMMAE (diamonds) is printed as >1000", "setting": "[5]", "result": 0.3, "unit": "µg/mL"},
      {"measurement": "Clonogenic Assay with 1.15.1-AE IC50, G361", "setting": "[6]", "result": "1050 ng/mL and 6500 pM"},
      {"measurement": "Clonogenic Assay with 1.15.1-AE IC50, RPMI-7951", "setting": "[6]", "result": "972 ng/mL and 6000 pM"},
      {"measurement": "Clonogenic Assay with 1.15.1-AE IC50, SK-Mel 2", "setting": "[6]", "result": "111 ng/mL and 750 pM"},
      {"measurement": "Clonogenic Assay with 1.15.1-AE IC50, SK-Mel 5", "setting": "[6]", "result": "237 ng/mL and 1600 pM"},
      {"measurement": "Clonogenic Assay with 1.15.1-AE IC50, UACC-62", "setting": "[6]", "result": "697 ng/mL and 4300 pM"},
      {"measurement": "Clonogenic Assay with 1.15.1-AE IC50, UACC-257", "setting": "[6]", "result": "825 ng/mL and 5500 pM"},
      {"measurement": "Clonogenic Assay with 1.15.1-AE IC50, WM-266-4", "setting": "[6]", "result": "345 ng/mL and 2300 pM"},
      {"measurement": "CR011-AE IC50, clonogenic assay, SF-268 (weakly expressing)", "setting": "[7]", "result": "> 1.5", "unit": "µg/mL"},
      {"measurement": "CR011-AE IC50, clonogenic assay, SF-539", "setting": "[7]", "result": 1.03, "unit": "µg/mL"},
      {"measurement": "CR011-AE IC50, clonogenic assay, SK-MEL-2", "setting": "[7]", "result": 0.303, "unit": "µg/mL"},
      {"measurement": "CR011-AE IC50, clonogenic assay, SNB-78", "setting": "[7]", "result": 0.449, "unit": "µg/mL"},
      {"measurement": "CR011-AE IC50, clonogenic assay, U-118-MG", "setting": "[7]", "result": 1.25, "unit": "µg/mL"},
      {"measurement": "CR011-AE IC50, clonogenic assay, XF-498", "setting": "[7]", "result": 0.216, "unit": "µg/mL"},
      {"measurement": "Clonogenic Assay with 1.15.1-AE IC50, SR", "setting": "[8]", "result": "296 ng/mL and 2000 pM"},
      {"measurement": "Clonogenic Assay with 1.15.1-AE IC50, THP-1", "setting": "[8]", "result": "207 ng/mL and 1400 pM"},
      {"measurement": "Clonogenic Assay with 1.15.1-AE IC50, U937", "setting": "[8]", "result": "340 ng/mL and 2400 pM"},
      {"measurement": "IC50 of colony formation (clonogenic assay, % of control) on SK-Mel-2 cells transfected with control siRNA (circles)", "setting": "[9]", "result": 0.22, "unit": "µg/mL"},
      {"measurement": "IC50 of colony formation (clonogenic assay, % of control) on mock-transfected SK-Mel-2 cells (diamonds)", "setting": "[9]", "result": 0.33, "unit": "µg/mL"}
    ]},
    {"binder": "B6", "values": [
      {"measurement": "killing of UACC-62 cells with saporin-conjugated secondary antibody (colony count)", "setting": "[10]", "result": "> 70", "unit": "%"},
      {"measurement": "Geo Mean Ratio (relative to pK16)", "setting": "[2]", "result": 2.6, "unit": "ratio"}
    ]},
    {"binder": "B7", "values": [
      {"measurement": "killing of UACC-62 cells with saporin-conjugated secondary antibody (colony count)", "setting": "[10]", "result": "> 70", "unit": "%"},
      {"measurement": "Geo Mean Ratio (relative to pK16)", "setting": "[2]", "result": 4.46, "unit": "ratio"}
    ]}
  ]
}
